Laboratory results taken from paper PMC11446282.
Substitutions are numbered along the chain they refer to.

Test system: PP2A-B55α
Test: Single alanine mutational scan, YFP-tagged interactors immunoprecipitated from HeLa cells, Western blot
Format: binding, human
[1] = single alanine mutant of YFP-tagged EYA3
[2] = single alanine mutant of YFP-tagged AMOTL2
[3] = single alanine mutant of YFP-tagged ZDS1

B1: EYA3 T88: EYA3, T88 to alanine (protein, UniProt Q99504 1-573, looked up, variant T88A)
Protein phosphatase EYA3: MEEEQDLPEQPVKKAKMQESGEQTISQVSNPDVSDQKPETSSLASNLPMSEEIMTCTDYIPRSSNDYTSQMYSAKPYAHILSVPVSEAAYPGQTQYQTLQQTQPYAVYPQATQTYGLPPFGALWPGMKPESGLIQTPSPSQHSVLTCTTGLTTSQPSPAHYSYPIQASSTNASLISTSSTIANIPAAAVASISNQDYPTYTILGQNQYQACYPSSSFGVTGQTNSDAESTTLAATTYQSEKPSVMAPAPAAQRLSSGDPSTSPSLSQTTPSKDTDDQSRKNMTSKNRGKRKADATSSQDSELERVFLWDLDETIIIFHSLLTGSYAQKYGKDPTVVIGSGLTMEEMIFEVADTHLFFNDLEECDQVHVEDVASDDNGQDLSNYSFSTDGFSGSGGSGSHGSSVGVQGGVDWMRKLAFRYRKVREIYDKHKSNVGGLLSPQRKEALQRLRAEIEVLTDSWLGTALKSLLLIQSRKNCVNVLITTTQLVPALAKVLLYGLGEIFPIENIYSATKIGKESCFERIVSRFGKKVTYVVIGDGRDEEIAAKQHNMPFWRITNHGDLVSLHQALELDFL
For B1, the Experimental % binding [1] was 1%.

B2: EYA3 I80: EYA3, I80 to alanine (protein, UniProt Q99504 1-573, looked up, variant I80A)
Protein phosphatase EYA3: B1 Protein phosphatase EYA3 with I80A, A88T
B2 was tested, and the Experimental % binding [1] was 5%.

B3: EYA3 L81: EYA3, L81 to alanine (protein, UniProt Q99504 1-573, looked up, variant L81A)
Protein phosphatase EYA3: B1 Protein phosphatase EYA3 with L81A, A88T
B3 was tested, and the Experimental % binding [1] was 20%.

B4: EYA3 P91: EYA3, P91 to alanine (protein, UniProt Q99504 1-573, looked up, variant P91A)
Protein phosphatase EYA3: B1 Protein phosphatase EYA3 with A88T, P91A
B4 was tested, and the Experimental % binding [1] was 5%.

B5: EYA3 H79: EYA3, H79 to alanine (protein, UniProt Q99504 1-573, looked up, variant H79A)
Protein phosphatase EYA3: B1 Protein phosphatase EYA3 with H79A, A88T
B5 was tested, and the Experimental % binding [1] was 10%.

B6: EYA3 K75: EYA3, K75 to alanine (protein, UniProt Q99504 1-573, looked up, variant K75A)
Protein phosphatase EYA3: B1 Protein phosphatase EYA3 with K75A, A88T
Work on B6 yielded an Experimental % binding [1] of 45%.

B7: EYA3 Y90: EYA3, Y90 to alanine (protein, UniProt Q99504 1-573, looked up, variant Y90A)
Protein phosphatase EYA3: B1 Protein phosphatase EYA3 with A88T, Y90A
With B7 the Experimental % binding [1] was 5%.

B8: EYA3 Y77: EYA3, Y77 to alanine (protein, UniProt Q99504 1-573, looked up, variant Y77A)
Protein phosphatase EYA3: B1 Protein phosphatase EYA3 with Y77A, A88T
In the case of B8, the Experimental % binding [1] is reported as 20%.

B9: AMOTL2 Y22: AMOTL2, Y22 to alanine (protein, UniProt Q9Y2J4 1-779, looked up, variant Y22A)
Angiomotin-like protein 2: MRTLEDSSGTVLHRLIQEQLRAGNLTETRTLLAIQQQALRGGAGTGGTGSPQASLEILAPEDSQVLQQATRQEPQGQEHQGGENHLAENTLYRLCPQPSKGEELPTYEEAKAHSQYYAAQQAGTRPHAGDRDPRGAPGGSRRQDEALRELRHGHVRSLSERLLQLSLERNGARAPSHMSSSHSFPQLARNQQGPPLRGPPAEGPESRGPPPQYPHVVLAHETTTAVTDPRYRARGSPHFQHAEVRILQAQVPPVFLQQQQQYQYLQQSQEHPPPPHPAALGHGPLSSLSPPAVEGPVSAQASSATSGSAHLAQMEAVLRENARLQRDNERLQRELESSAEKAGRIEKLESEIQRLSEAHESLTRASSKREALEKTMRNKMDSEMRRLQDFNRDLRERLESANRRLASKTQEAQAGSQDMVAKLLAQSYEQQQEQEKLEREMALLRGAIEDQRRRAELLEQALGNAQGRAARAEEELRKKQAYVEKVERLQQALGQLQAACEKREQLELRLRTRLEQELKALRAQQRQAGAPGGSSGSGGSPELSALRLSEQLREKEEQILALEADMTKWEQKYLEERAMRQFAMDAAATAAAQRDTTLIRHSPQPSPSSSFNEGLLTGGHRHQEMESRLKVLHAQILEKDAVIKVLQQRSRRDPGKAIQGSLRPAKSVPSVFAAAAAGTQGWQGLSSSERQTADAPARLTTDRAPTEEPVVTAPPAAHAKHGSRDGSTQTEGPPDSTSTCLPPEPDSLLGCSSSQRAASLDSVATSRVQDLSDMVEILI
In the case of B9, the Experimental % binding [2] is reported as 25%.

B10: AMOTL2 V11: AMOTL2, V11 to alanine (protein, UniProt Q9Y2J4 1-779, looked up, variant V11A)
Angiomotin-like protein 2: B9 Angiomotin-like protein 2 with V11A, A22Y
B10 showed an Experimental % binding [2] of 114%.

B11: AMOTL2 T30: AMOTL2, T30 to alanine (protein, UniProt Q9Y2J4 1-779, looked up, variant T30A)
Angiomotin-like protein 2: B9 Angiomotin-like protein 2 with A22Y, T30A
In the case of B11, the Experimental % binding [2] is reported as 85%.

B12: AMOTL2 Q36: AMOTL2, Q36 to alanine (protein, UniProt Q9Y2J4 1-779, looked up, variant Q36A)
Angiomotin-like protein 2: B9 Angiomotin-like protein 2 with A22Y, Q36A
With B12 the Experimental % binding [2] was 76%.

B13: AMOTL2 R29: AMOTL2, R29 to alanine (protein, UniProt Q9Y2J4 1-779, looked up, variant R29A)
Angiomotin-like protein 2: B9 Angiomotin-like protein 2 with A22Y, R29A
B13 was tested, and the Experimental % binding [2] was 4%.

B14: AMOTL2 T28: AMOTL2, T28 to alanine (protein, UniProt Q9Y2J4 1-779, looked up, variant T28A)
Angiomotin-like protein 2: B9 Angiomotin-like protein 2 with A22Y, T28A
B14 was tested, and the Experimental % binding [2] was 4%.

B15: AMOTL2 Q35: AMOTL2, Q35 to alanine (protein, UniProt Q9Y2J4 1-779, looked up, variant Q35A)
Angiomotin-like protein 2: B9 Angiomotin-like protein 2 with A22Y, Q35A
B15 gave an Experimental % binding [2] of 61%.

B16: AMOTL2 E27: AMOTL2, E27 to alanine (protein, UniProt Q9Y2J4 1-779, looked up, variant E27A)
Angiomotin-like protein 2: B9 Angiomotin-like protein 2 with A22Y, E27A
B16 showed an Experimental % binding [2] of 165%.

B17: AMOTL2 T10: AMOTL2, T10 to alanine (protein, UniProt Q9Y2J4 1-779, looked up, variant T10A)
Angiomotin-like protein 2: B9 Angiomotin-like protein 2 with T10A, A22Y
B17 gave an Experimental % binding [2] of 104%.

B18: AMOTL2 I34: AMOTL2, I34 to alanine (protein, UniProt Q9Y2J4 1-779, looked up, variant I34A)
Angiomotin-like protein 2: B9 Angiomotin-like protein 2 with A22Y, I34A
For B18, the Experimental % binding [2] was 15%.

B19: AMOTL2 L12: AMOTL2, L12 to alanine (protein, UniProt Q9Y2J4 1-779, looked up, variant L12A)
Angiomotin-like protein 2: B9 Angiomotin-like protein 2 with L12A, A22Y
In the case of B19, the Experimental % binding [2] is reported as 88%.

B20: AMOTL2 L31: AMOTL2, L31 to alanine (protein, UniProt Q9Y2J4 1-779, looked up, variant L31A)
Angiomotin-like protein 2: B9 Angiomotin-like protein 2 with A22Y, L31A
B20 was tested, and the Experimental % binding [2] was 115%.

B21: AMOTL2 L32: AMOTL2, L32 to alanine (protein, UniProt Q9Y2J4 1-779, looked up, variant L32A)
Angiomotin-like protein 2: B9 Angiomotin-like protein 2 with A22Y, L32A
B21 gave an Experimental % binding [2] of 118%.

B22: AMOTL2 H13: AMOTL2, H13 to alanine (protein, UniProt Q9Y2J4 1-779, looked up, variant H13A)
Angiomotin-like protein 2: B9 Angiomotin-like protein 2 with H13A, A22Y
B22 gave an Experimental % binding [2] of 110%.

B23: AMOTL2 Q37: AMOTL2, Q37 to alanine (protein, UniProt Q9Y2J4 1-779, looked up, variant Q37A)
Angiomotin-like protein 2: B9 Angiomotin-like protein 2 with A22Y, Q37A
B23 was tested, and the Experimental % binding [2] was 44%.

B24: ZDS1 S864: ZDS1, S864 to alanine (protein, UniProt P50111 1-915, looked up, variant S864A)
Protein ZDS1: MSNRDNESMLRTTSSDKAIASQRDKRKSEVLIAAQSLDNEIRSVKNLKRLSIGSMDLLIDPELDIKFGGESSGRRSWSGTTSSSASMPSDTTTVNNTRYSDPTPLENLHGRGNSGIESSNKTKQGNYLGIKKGVHSPSRKLNANVLKKNLLWVPANQHPNVKPDNFLELVQDTLQNIQLSDNGEDNDGNSNENNDIEDNGEDKESQSYENKENNTINLNRGLSRHGNASLIRRPSTLRRSYTEFDDNEDDDNKGDSASETVNKVEERISKIKERPVSLRDITEELTKISNSAGLTDNDAITLARTLSMAGSYSDKKDQPQPEGHYDEGDIGFSTSQANTLDDGEFASNMPINNTMTWPERSSLRRSRFNTYRIRSQEQEKEVEQSVDEMKNDDEERLKLTKNTIKVEIDPHKSPFRQQDEDSENMSSPGSIGDFQDIYNHYRQSSGEWEQEMGIEKEAEEVPVKVRNDTVEQDLELREGTTDMVKPSATDDNKETKRHRRRNGWTWLNNKMSREDDNEENQGDDENEENVDSQRMELDNSKKHYISLFNGGEKTEVSNKEEMNNSSTSTATSQTRQKIEKTFANLFRRKPHHKHDASSSPSSSPSSSPSIPNNDAVHVRVRKSKKLGNKSGREPVEPIVLRNRPRPHRHHHSRHGSQKISVKTLKDSQPQQQIPLQPQLEGAIEIEKKEESDSESLPQLQPAVSVSSTKSNSRDREEEEAKKKNKKRSNTTEISNQQHSKHVQKENTDEQKAQLQAPAQEQVQTSVPVQASAPVQNSAPVQTSAPVEASAQTQAPAAPPLKHTSILPPRKLTFADVKKPDKPNSPVQFTDSAFGFPLPLLTVSTVIMFDHRLPINVERAIYRLAHLKLSNSKRGLREQVLLSNFMYAYLNLVNHTLYMEQVAHDKEQQQQQQQQP
In the case of B24, the Experimental % binding [3] is reported as 113%.

B25: ZDS1 H865: ZDS1, H865 to alanine (protein, UniProt P50111 1-915, looked up, variant H865A)
Protein ZDS1: B24 Protein ZDS1 with A864S, H865A
B25 gave an Experimental % binding [3] of 75%.

B26: ZDS1 K867: ZDS1, K867 to alanine (protein, UniProt P50111 1-915, looked up, variant K867A)
Protein ZDS1: B24 Protein ZDS1 with A864S, K867A
B26 was tested, and the Experimental % binding [3] was 15%.

B27: ZDS1 S869: ZDS1, S869 to alanine (protein, UniProt P50111 1-915, looked up, variant S869A)
Protein ZDS1: B24 Protein ZDS1 with A864S, S869A
Work on B27 yielded an Experimental % binding [3] of 77%.

B28: ZDS1 S871: ZDS1, S871 to alanine (protein, UniProt P50111 1-915, looked up, variant S871A)
Protein ZDS1: B24 Protein ZDS1 with A864S, S871A
In the case of B28, the Experimental % binding [3] is reported as 102%.

B29: ZDS1 L868: ZDS1, L868 to alanine (protein, UniProt P50111 1-915, looked up, variant L868A)
Protein ZDS1: B24 Protein ZDS1 with A864S, L868A
For B29, the Experimental % binding [3] was 56%.

B30: ZDS1 L866: ZDS1, L866 to alanine (protein, UniProt P50111 1-915, looked up, variant L866A)
Protein ZDS1: B24 Protein ZDS1 with A864S, L866A
Work on B30 yielded an Experimental % binding [3] of 52%.

B31: ZDS1 N870: ZDS1, N870 to alanine (protein, UniProt P50111 1-915, looked up, variant N870A)
Protein ZDS1: B24 Protein ZDS1 with A864S, N870A
With B31 the Experimental % binding [3] was 49%.
